{"source": "paper PMC5389570", "target": "RPA heterotrimer (RPA70/RPA32/RPA14) (Homo sapiens) (UniProt P27694+P15927+P35244)", "sequence (P27694 whole entry, chain 1 of 3)": "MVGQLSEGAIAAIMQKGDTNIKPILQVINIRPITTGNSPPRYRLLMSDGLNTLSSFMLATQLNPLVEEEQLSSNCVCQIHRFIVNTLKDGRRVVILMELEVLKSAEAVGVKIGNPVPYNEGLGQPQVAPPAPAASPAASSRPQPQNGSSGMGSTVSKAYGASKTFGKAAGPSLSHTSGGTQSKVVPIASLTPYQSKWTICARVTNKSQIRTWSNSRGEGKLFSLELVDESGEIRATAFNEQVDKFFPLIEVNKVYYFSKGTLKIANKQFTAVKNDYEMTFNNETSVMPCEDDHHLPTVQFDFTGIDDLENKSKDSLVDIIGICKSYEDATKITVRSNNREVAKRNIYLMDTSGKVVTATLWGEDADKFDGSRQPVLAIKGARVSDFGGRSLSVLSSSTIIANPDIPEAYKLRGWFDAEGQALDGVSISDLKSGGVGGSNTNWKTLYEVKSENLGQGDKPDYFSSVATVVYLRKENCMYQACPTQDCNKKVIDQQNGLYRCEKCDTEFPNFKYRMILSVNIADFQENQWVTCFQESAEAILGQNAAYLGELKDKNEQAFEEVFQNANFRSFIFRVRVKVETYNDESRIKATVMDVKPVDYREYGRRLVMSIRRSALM", "sequence (P15927 whole entry, chain 2 of 3)": "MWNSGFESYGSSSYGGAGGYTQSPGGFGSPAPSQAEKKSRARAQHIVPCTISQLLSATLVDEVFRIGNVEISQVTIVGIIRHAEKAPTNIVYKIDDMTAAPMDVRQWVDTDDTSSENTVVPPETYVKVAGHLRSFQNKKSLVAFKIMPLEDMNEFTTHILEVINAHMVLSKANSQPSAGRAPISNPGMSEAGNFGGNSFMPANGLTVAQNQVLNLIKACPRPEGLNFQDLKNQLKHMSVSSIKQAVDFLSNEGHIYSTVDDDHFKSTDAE", "sequence (P35244 whole entry, chain 3 of 3)": "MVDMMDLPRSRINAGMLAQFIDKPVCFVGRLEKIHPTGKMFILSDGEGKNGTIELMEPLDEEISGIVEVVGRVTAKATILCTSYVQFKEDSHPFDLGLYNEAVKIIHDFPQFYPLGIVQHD", "test": "EMSA"}
{"sequence": "TTTTTTTTTTTTTTTTTTTTTTTTTTTTTTTTTTTTTTTTGGTCGGAGTTAGAGTAGGGTCGGAGTTAGAGTAGCCAGTA [S8 (80-mer)]", "values": [{"measurement": "binding signal (fold vs RPA alone)", "value": 2}]}
